According to paper PMC7401798:

Legend:
[1] = target: Taxol-stabilized microtubules (UniProt P02550); assay: co-sedimentation
HIS-TAN1-GFP (maize) = assay: pull-down
Sequence of HIS-TAN1-GFP (maize) (C0PM98 whole entry): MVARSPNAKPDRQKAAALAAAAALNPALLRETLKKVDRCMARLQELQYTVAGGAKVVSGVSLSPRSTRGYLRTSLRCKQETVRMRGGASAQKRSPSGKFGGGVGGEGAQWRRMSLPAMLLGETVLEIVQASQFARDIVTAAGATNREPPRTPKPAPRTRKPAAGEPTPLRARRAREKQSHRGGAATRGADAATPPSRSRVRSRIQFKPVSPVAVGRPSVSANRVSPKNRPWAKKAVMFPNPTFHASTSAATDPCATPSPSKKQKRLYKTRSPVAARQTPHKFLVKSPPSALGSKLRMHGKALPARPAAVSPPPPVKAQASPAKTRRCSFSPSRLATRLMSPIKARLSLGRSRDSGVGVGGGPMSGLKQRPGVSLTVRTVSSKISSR

Sequence of Atto488-tagged HIS-TAN1-GFP (natural protein) (C0PM98 whole entry): as above
Sequence of HIS-TAN1-GFP (natural protein) (C0PM98 whole entry): as above

Row | apparent affinity [1] | Substance | other results
1 | 0.595 µM | HIS-TAN1-GFP (natural protein) | –
2 | 0.05 µM | Atto488-tagged HIS-TAN1-GFP (natural protein) | –
3 | – | 6xHIS-tagged ZmTAN1 (TANGLED1) (natural protein) | K0.5 [1]: 1.08 µM
4 | – | tubulin dimers (from UniProt P02550 1-451) (complex) | stoichiometry N (tubulin dimers per HIS-TAN1-GFP) (HIS-TAN1-GFP (maize)): 2
